{
  "source": "paper PMC7074877",
  "about": "(ACS chemical neuroscience, 2018)",
  "test": "Transmission electron microscopy of assemblies",
  "format": "physicochemical",
  "conditions": "7 μL aliquots on carbon-coated copper grids, stained with 1% uranyl acetate",
  "data": [
    {"substance": "HEWL: fibrils from hen egg white lysozyme, positive control for ThT and TEM", "values": [
      {"measurement": "average diameter of assemblies by TEM", "result": 38, "unit": "nm"}
    ]}
  ]
}
